Source: publication PMC4932917, “Structural basis for acyl-group discrimination by human Gcn5L2” (Acta Crystallographica. Section D, Structural Biology, 2016)

Substrate: CC(=O)SCCNC(=O)CCNC(=O)[C@H](O)C(C)(C)COP(=O)(O)OP(=O)(O)OC[C@H]1O[C@@H](n2cnc3c(N)ncnc32)[C@H](O)[C@@H]1OP(=O)(O)O
Test: purified protein
Details: acyl-CoA site of the active site

B1: human Gcn5L2 (hsGcn5L2) (Homo sapiens) (protein)
chain: GIIEFHVIGNSLTPKANRRVLLWLVGLQNVFSHQLPRMPKEYIARLVFDPKHKTLALIKDGRVIGGICFRMFPTQGFTEIVFCAVTSNEQVKGYGTHLMNHLKEYHIKHNILYFLTYADEYAIGYFKKQGFSKDIKVPKSRYLGYIKDYEGATLMECELNPRIPYT
Q: How did the Km turn out when B1 was run?
A: 0.91 ± 0.09 µM
